The results in this text go back to paper PMC7155755, “Binding of the Human 14-3-3 Isoforms to Distinct Sites in the Leucine-Rich Repeat Kinase 2” (Frontiers in Neuroscience, 2020).

Read-outs that look alike come from different tables or passages of the source. Square brackets hold non-standard residues; d marks the D form. Ends that are not written are not given here. fluorescein = N-terminal fluorescein label; pT = C[C@@H](OP(=O)(O)O)[C@H](N)C(=O)O Bounds are passed on as bounds.

One test deals with 14-3-3ε (UniProt P62258). Kind of test: fluorescence polarization direct binding. The conditions noted are these: reference: unphosphorylated T2524 peptide; sites T2524. Background: Polarisation of emitted light reports the rotation of a fluorescent probe.
Another test deals with 14-3-3γ (UniProt P61981). Nature of the test: fluorescence polarization direct binding. The conditions noted are these: reference: unphosphorylated T2524 peptide; sites T2524.
Another test concerns the target 14-3-3θ (UniProt P27348). Nature of the test: fluorescence polarization direct binding. The conditions noted are these: reference: unphosphorylated T2524 peptide; sites T2524.
A further test addresses 14-3-3η (UniProt Q04917). Nature of the test: fluorescence polarization direct binding. Conditions: reference: unphosphorylated T2524 peptide; sites T2524.
The target in another test is 14-3-3ζ (UniProt P63104). Nature of the test: fluorescence polarization direct binding. The conditions noted are these: reference: unphosphorylated T2524 peptide; sites T2524.
The target in the next test is 14-3-3β (UniProt P31946). Nature of the test: fluorescence polarization direct binding. Conditions: reference: unphosphorylated T2524 peptide; sites T2524.
The target of a further test is 14-3-3σ (UniProt P31947). Nature of the test: fluorescence polarization direct binding. The conditions noted are these: reference: unphosphorylated T2524 peptide; sites T2524.
In a further test the target is T1, R1441C/pS1444 (R1441C (stands in the printed letters)).
T1 construct: LRRK2-derived peptide of the Roc domain with the familial PD mutation R1441C, phosphorylated at S1444; source: synthetic peptide (Peps4LS GmbH)
T1 peptide: fluorescein-LFNIKACAS[pS]SPVILVGT
Kind of test: fluorescence polarisation; direct binding; dilution series of 14-3-3 isoform (at least 5 μM down to picomolar) mixed with 1 nM fluorescein-labelled peptide; 20 mM MOPS pH 7, 150 mM NaCl, 0.005% CHAPS; 384-well plates.

In test [1] the target is pS910/pS935. The description is as above.
Test [2] concerns the target pS910/pS935. The description is as above. This is another data set of the same source.
The target of the next test is pS1444. The test is described as above.
The next test deals with Q930R/pS935. Described as above.
Test [3] has as its target T2, human 14-3-3 isoform η (recombinant, MBP tag removed) (human, UniProt Q04917 1-246).
T2 construct: 14-3-3 eta, human; Expressed from pMAL2CX plasmids; also called 14-3-3η; source: E. coli BL21DE3, purified (maltose-agarose, Factor Xa, anion exchange)
T2 sequence (looked up): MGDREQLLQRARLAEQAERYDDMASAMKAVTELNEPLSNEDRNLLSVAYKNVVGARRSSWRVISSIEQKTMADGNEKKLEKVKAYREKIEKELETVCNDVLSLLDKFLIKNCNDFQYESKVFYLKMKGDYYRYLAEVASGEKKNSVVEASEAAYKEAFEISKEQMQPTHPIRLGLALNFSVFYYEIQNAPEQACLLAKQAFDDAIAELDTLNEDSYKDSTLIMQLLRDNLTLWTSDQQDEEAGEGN
The test is described as above. Conditions: both partners purified.

Test [4] deals with T3, human 14-3-3 isoform ζ (recombinant, MBP tag removed) (human, UniProt P63104 1-245).
T3 construct: 14-3-3 zeta, human; Expressed from pMAL2CX plasmids; also called 14-3-3ζ; source: E. coli BL21DE3, purified (maltose-agarose, Factor Xa, anion exchange)
T3 sequence (looked up): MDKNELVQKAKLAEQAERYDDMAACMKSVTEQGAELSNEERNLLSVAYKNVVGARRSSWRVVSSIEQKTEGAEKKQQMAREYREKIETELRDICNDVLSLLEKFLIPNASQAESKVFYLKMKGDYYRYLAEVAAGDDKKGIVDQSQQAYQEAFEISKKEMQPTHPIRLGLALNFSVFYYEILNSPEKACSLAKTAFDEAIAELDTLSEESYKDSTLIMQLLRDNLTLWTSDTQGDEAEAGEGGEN
The description is as above. Conditions: both partners purified.

Test [5] concerns the target T4, human 14-3-3 isoform ε (recombinant, MBP tag removed) (human, UniProt P62258 1-255).
T4 construct: 14-3-3 epsilon, human; Expressed from pMAL2CX plasmids; also called 14-3-3ε; source: E. coli BL21DE3, purified (maltose-agarose, Factor Xa, anion exchange)
T4 sequence (looked up): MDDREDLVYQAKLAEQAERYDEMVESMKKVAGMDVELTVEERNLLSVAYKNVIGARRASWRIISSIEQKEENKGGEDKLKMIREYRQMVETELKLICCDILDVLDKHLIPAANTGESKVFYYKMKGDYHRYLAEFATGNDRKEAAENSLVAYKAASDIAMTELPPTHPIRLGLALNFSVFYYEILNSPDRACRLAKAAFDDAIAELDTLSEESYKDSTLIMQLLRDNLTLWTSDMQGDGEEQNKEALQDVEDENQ
Described as above. The conditions noted are these: both partners purified.

The target of test [6] is T5, human 14-3-3 isoform σ (recombinant, MBP tag removed) (human, UniProt P31947 1-248).
T5 construct: 14-3-3 sigma, human; Expressed from pMAL2CX plasmids; also called 14-3-3σ; source: E. coli BL21DE3, purified (maltose-agarose, Factor Xa, anion exchange)
T5 sequence (looked up): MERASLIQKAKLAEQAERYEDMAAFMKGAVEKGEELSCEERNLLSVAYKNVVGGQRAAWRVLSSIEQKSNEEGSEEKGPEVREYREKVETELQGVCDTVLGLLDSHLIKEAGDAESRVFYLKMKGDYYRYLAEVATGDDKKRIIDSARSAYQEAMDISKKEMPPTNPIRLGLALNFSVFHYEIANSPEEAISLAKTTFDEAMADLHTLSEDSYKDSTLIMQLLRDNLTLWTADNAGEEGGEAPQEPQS
Described as above. The conditions noted are these: both partners purified.

Test [7] deals with T6, human 14-3-3 isoform θ (recombinant, MBP tag removed) (human, UniProt P27348 1-245).
T6 construct: 14-3-3 theta, human; Expressed from pMAL2CX plasmids; also called 14-3-3θ; source: E. coli BL21DE3, purified (maltose-agarose, Factor Xa, anion exchange)
T6 sequence (looked up): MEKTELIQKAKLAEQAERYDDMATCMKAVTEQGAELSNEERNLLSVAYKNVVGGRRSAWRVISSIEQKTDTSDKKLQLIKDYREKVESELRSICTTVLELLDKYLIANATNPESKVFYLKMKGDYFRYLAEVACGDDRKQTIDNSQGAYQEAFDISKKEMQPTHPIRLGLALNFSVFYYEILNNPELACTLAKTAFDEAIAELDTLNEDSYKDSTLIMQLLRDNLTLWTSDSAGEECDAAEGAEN
Described as above. Conditions: both partners purified.

Test [8] concerns the target T7, human 14-3-3 isoform β (recombinant, MBP tag removed) (human, UniProt P31946 1-246).
T7 construct: 14-3-3 beta, human; Expressed from pMAL2CX plasmids; also called 14-3-3β; source: E. coli BL21DE3, purified (maltose-agarose, Factor Xa, anion exchange)
T7 sequence (looked up): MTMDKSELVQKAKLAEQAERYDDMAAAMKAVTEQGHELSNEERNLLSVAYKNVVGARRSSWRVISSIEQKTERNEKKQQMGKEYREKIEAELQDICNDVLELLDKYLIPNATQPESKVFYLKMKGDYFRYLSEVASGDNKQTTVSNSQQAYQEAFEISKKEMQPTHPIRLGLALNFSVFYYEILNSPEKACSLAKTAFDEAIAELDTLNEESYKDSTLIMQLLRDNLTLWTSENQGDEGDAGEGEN
The test is described as above. The conditions noted are these: both partners purified.

Test [9] has as its target LRRK2 pS910/pS935 peptide (Homo sapiens, UniProt Q5S007).

Sequence of pS910/pS935 (Q5S007 906-940): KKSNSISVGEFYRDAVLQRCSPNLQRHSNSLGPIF
Sequence of LRRK2 pS910/pS935 peptide (Q5S007 whole entry): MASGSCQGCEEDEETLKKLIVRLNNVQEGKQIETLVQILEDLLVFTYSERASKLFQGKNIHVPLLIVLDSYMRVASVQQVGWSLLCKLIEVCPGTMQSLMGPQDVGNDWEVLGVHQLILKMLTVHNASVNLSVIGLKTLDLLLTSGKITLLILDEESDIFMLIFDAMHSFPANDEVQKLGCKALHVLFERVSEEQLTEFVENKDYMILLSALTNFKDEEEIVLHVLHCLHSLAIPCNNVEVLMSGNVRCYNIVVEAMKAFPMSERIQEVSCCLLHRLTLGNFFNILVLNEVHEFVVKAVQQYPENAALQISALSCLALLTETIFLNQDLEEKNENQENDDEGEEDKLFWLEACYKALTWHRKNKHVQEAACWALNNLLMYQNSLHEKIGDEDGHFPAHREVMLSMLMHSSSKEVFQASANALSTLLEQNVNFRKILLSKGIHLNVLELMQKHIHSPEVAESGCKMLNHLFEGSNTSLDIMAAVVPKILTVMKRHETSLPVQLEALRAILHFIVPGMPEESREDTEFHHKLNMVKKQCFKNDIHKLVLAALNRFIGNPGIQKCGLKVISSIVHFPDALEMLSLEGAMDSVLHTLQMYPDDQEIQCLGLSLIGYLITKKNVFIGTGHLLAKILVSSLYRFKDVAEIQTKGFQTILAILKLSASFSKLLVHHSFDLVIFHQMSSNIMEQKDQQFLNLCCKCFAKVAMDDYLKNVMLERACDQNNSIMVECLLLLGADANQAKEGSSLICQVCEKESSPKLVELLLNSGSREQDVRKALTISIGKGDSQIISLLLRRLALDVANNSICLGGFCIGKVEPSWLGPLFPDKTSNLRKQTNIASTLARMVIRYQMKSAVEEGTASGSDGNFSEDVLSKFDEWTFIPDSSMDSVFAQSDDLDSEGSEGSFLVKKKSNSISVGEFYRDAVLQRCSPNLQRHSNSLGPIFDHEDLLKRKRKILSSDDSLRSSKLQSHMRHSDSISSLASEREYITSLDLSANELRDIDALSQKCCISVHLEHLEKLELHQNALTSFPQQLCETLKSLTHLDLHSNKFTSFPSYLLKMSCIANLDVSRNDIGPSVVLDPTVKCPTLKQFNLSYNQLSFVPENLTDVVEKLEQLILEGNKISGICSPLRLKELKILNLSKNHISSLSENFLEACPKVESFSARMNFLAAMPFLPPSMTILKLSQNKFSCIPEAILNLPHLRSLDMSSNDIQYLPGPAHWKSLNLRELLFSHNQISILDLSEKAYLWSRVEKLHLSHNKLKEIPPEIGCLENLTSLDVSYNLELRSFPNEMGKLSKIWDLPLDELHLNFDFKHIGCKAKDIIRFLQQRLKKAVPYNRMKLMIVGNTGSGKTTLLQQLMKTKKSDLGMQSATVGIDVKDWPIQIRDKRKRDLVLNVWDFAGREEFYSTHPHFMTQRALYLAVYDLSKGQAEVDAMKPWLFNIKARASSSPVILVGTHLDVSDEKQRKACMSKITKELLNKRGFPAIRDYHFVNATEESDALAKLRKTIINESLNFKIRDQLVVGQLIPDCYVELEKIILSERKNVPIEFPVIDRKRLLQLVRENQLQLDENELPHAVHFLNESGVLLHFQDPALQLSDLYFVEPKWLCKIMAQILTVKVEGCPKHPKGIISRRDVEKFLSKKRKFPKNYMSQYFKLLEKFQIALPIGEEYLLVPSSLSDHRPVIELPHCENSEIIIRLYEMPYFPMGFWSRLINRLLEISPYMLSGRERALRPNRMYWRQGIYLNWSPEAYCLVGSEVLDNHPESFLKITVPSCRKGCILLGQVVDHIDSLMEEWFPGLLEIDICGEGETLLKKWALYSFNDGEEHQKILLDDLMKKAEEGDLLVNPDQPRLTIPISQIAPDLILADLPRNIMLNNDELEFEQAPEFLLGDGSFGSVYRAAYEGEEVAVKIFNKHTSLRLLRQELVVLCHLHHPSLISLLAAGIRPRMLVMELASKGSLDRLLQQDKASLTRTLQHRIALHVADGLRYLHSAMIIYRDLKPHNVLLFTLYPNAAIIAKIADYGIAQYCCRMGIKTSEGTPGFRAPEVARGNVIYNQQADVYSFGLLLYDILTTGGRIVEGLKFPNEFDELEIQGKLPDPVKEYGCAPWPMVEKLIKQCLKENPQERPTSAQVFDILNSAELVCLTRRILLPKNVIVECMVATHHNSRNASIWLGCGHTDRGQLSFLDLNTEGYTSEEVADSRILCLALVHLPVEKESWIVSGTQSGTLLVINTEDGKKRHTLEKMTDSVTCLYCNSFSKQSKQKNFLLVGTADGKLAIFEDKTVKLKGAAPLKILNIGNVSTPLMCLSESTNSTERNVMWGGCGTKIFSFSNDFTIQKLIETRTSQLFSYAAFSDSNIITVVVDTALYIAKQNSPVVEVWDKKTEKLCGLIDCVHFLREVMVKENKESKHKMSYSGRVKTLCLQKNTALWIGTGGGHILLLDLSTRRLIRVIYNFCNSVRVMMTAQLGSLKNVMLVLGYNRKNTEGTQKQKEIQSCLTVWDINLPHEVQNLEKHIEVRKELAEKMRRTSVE

Consider “LRRK2 (leucine-rich repeat kinase 2) C-terminus (from UniProt Q5S007) pT2524 peptide”, for which the “binding against the reference” value with 14-3-3ε, with 14-3-3γ, in the test with 14-3-3θ, with 14-3-3η, with 14-3-3ζ and with 14-3-3β was “gained” each time. In addition, the “binding against the reference” value with 14-3-3σ is reported as “gained”.

The Kd is the free concentration of one partner at which half of the binding sites on the other are occupied at equilibrium, for simple one-to-one binding. On to “human 14-3-3 isoform γ (recombinant, MBP tag removed) (from UniProt P61981 1-247) (natural protein)”, for which the fold decrease in affinity against pS1444 with R1441C/pS1444 was over 30 fold. Moreover, the Kd was found to be 4.8 nM with pS910/pS935 [1], 3.2 nM with pS910/pS935 [2], 106 nM in the test with pS1444 and 11.1 nM with Q930R/pS935.

B1: pT2524 (peptide)
peptide: fluorescein-HIEVRKELAEKMRR[pT]SVE
notes: LRRK2-derived peptide of the very C-terminus, phosphorylated at T2524; source: synthetic peptide (Peps4LS GmbH)
For B1, the binding result in test [3], in [4], in [5], in test [6], in [7] and in test [8] was “binds” each time.

B2: 14-3-3σ (protein)
chain: T5 sequence (looked up)
modifications: pS910+pS935
In test [9], B2 displayed a Kd of 61 nM.
